Assay results from US20100249372A1 (WISCONSIN ALUMNI RESEARCH FOUNDATION, published 2010).

T1: Botulinum neurotoxin B (Clostridium botulinum, UniProt P10844 2-1291)
T1 sequence: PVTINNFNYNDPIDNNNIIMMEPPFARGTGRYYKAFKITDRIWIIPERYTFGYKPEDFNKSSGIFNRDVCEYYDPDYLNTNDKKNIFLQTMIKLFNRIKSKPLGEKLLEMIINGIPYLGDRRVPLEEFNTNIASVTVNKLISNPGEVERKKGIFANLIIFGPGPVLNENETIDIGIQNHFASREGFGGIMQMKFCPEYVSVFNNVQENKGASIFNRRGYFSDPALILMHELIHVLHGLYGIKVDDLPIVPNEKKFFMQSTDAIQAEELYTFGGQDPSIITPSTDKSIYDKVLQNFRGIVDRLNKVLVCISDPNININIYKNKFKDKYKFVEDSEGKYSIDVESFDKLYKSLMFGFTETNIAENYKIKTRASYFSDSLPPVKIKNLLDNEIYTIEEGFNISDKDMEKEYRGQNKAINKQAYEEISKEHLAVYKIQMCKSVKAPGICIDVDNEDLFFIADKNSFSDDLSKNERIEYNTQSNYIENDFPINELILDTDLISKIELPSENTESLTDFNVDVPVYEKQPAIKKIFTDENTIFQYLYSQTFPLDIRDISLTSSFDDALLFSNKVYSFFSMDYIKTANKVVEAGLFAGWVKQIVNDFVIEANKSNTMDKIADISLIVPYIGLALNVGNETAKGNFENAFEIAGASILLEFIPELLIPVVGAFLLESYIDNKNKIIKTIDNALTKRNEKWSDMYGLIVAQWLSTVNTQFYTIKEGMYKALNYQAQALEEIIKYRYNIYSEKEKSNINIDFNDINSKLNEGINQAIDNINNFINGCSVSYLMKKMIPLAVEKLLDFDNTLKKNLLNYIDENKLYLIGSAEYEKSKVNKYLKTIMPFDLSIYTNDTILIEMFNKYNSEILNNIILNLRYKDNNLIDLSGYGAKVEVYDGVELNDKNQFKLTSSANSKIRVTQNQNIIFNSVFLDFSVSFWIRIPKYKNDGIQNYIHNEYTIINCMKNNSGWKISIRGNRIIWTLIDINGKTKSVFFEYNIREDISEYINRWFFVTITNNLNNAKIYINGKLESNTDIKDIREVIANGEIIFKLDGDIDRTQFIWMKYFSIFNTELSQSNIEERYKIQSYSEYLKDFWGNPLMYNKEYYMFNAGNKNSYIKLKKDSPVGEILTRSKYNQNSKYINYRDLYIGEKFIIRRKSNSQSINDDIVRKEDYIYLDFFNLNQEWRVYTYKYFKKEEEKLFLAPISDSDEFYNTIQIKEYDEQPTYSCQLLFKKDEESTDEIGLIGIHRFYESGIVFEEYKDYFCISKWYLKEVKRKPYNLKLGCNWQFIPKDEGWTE

T2: Botulinum neurotoxin E (Clostridium botulinum, UniProt Q00496 2-1251)
T2 sequence: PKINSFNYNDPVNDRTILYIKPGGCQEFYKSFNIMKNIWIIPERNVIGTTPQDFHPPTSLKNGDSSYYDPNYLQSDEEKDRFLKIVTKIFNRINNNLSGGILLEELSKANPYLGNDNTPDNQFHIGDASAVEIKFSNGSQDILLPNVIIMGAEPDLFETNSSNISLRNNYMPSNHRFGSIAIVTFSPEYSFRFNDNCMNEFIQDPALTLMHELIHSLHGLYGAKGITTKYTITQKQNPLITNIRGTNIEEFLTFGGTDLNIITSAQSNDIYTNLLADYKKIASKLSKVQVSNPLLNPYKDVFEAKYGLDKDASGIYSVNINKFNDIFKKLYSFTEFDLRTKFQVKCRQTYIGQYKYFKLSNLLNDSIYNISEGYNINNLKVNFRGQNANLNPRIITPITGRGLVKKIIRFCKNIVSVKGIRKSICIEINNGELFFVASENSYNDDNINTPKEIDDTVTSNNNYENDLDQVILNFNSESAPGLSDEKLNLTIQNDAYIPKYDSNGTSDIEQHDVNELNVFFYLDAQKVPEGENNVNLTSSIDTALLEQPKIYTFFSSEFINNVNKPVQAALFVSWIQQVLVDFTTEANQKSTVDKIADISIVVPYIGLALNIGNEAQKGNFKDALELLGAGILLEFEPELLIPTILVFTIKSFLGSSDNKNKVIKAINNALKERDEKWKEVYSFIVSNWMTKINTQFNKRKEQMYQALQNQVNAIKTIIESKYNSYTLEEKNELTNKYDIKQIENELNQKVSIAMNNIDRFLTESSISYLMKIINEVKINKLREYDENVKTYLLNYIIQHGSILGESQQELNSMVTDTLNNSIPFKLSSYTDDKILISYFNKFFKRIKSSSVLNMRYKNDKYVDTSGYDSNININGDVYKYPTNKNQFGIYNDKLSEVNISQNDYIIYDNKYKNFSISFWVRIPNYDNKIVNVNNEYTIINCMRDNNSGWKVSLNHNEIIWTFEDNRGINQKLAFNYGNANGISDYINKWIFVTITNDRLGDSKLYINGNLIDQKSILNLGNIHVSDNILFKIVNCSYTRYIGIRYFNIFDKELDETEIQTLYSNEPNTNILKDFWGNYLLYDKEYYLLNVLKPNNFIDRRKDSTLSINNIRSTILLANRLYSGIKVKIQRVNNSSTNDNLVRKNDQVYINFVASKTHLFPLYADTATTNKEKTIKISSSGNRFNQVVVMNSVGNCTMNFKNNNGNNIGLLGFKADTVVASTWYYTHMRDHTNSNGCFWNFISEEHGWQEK


Experiments:
Botulinum neurotoxin B = molecular target: T1, Botulinum neurotoxin B; experiment: pull-down with immobilised GST-L4 (8 µg), western blot
Botulinum neurotoxin E = molecular target: T2, Botulinum neurotoxin E; experiment: as above
Botulinum neurotoxin A = Botulinum neurotoxin A (Clostridium botulinum, UniProt P0DPI1 2-1296); experiment: immunostaining of transfected SV2A/B double knockout hippocampal neurons

| Binder | binding result (Botulinum neurotoxin B) | binding result (Botulinum neurotoxin E) | binding result (Botulinum neurotoxin A) |
| --- | --- | --- | --- |
| GST-tagged 4th luminal domain (L4) of rat SV2A (other) FPDMIRHLQAVDYAARTKVFPGERVEHVTFNFTLENQIHRGGQYFNDKFIGLRLKSVSFEDSLFEECYFEDVTSSNTFFRNCTFINTVFYNTDLFEYKFVNSRLVNSTFLHNKEGCPLDVTGTGEGAY | no binding (tested: 100 nM) | no binding (tested: 100 nM) |  |
| GST-tagged 4th luminal domain (L4) of rat SV2B (other) FPDMIRYFQDEEYKSKMKVFFGEHVHGATINFTMENQIHQHGKLVNDKFIKMYFKHVLFEDTFFDKCYFEDVTSTDTYFKNCTIESTTFYNTDLYKHKFIDCRFINSTFLEQKEGCHMDFEEDNDF | no binding (tested: 100 nM) | no binding (tested: 100 nM) |  |
| GST-tagged 4th luminal domain (L4) of rat SV2C (other) FPDVIKHLQSDEYALLTRNVQKDKYANFSINFTMENQVHTGMEYDNGRFLGVKFKSVTFKDSVFKSCTFDDVTSVNTYFKNCTFIDTLFENTDFEPYKFIDSEFQNCSFLHNKTGCQITFDDDYSAY | no binding (tested: 100 nM) | no binding (tested: 100 nM) |  |
| synaptotagmin I (other) MVSASHPEALAAPVTTVATLVPHNATEPASPGEGKEDAFSKLKQKFMNELHKIPLPPWALIAIAIVAVLLVVTCCFCVCKKCLFKKKNKKKGKEKGGKNAINMKDVKDLGKTMKDQALKDDDAETGLTDGEEKEEPKEEEKLGKLQYSLDYDFQNNQLLVGIIQAAELPALDMGGTSDPYVKVFLLPDKKKKFETKVHRKTLNPVFNEQFTFKVPYSELGGKTLVMAVYDFDRFSKHDIIGEFKVPMNTVDFGHVTEEWRDLQSAEKEEQEKLGDICFSLRYVPTAGKLTVVILEAKNLKKMDVGGLSDPYVKIHLMQNGKRLKKKKTTIKKNTLNPYYNESFSFEVPFEQIQKVQVVVTVLDYDKIGKNDAIGKVFVGYNSTGAELRHWSDMLANPRRPIAQWHTLQVEEEVDAMLAVKK |  |  | no binding (tested: 10 nM) |
